# Source: the supplement of paper PMC9233669
# Fewer inactive variants are shown than the library holds.
# Assays:
# biotinyl-Phe-oxazolone = test: self-aminoacylation, catalytic enhancement (BFO) (fold over background); higher = more active; k-Seq, kA / k0A0; sequences stand for … in GGGAAUGGAUCCACAUCUACGAAUUC…UUCACUGCAGACUUGACGAAGCUG
# Method in brief: (§1)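 Mutagenized RNA pools with a 21-nt variable region (0.43 μM) were reacted with each biotinyl-aminoacyl-oxazolone at 2–1250 μM for 90 minutes at room temperature, in 50 μL HEPES/NaCl/KCl/MgCl2/CaCl2 buffer containing 5% acetonitrile at pH 6.9–7.0. RNA captured on streptavidin was quantified by triplicate qPCR and by Illumina sequencing. The fraction reacted for each sequence was fit to a pseudo-first-order model with bootstrapping, and catalytic enhancement is the median kA divided by the uncatalyzed rate, taken as the low-activity peak of a bimodal Gaussian fit.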
# biotinyl-Val-oxazolone = test: self-aminoacylation, catalytic enhancement (BVO) (fold over background); higher = more active; k-Seq, kA / k0A0; sequences stand for … in GGGAAUGGAUCCACAUCUACGAAUUC…UUCACUGCAGACUUGACGAAGCUG
# Method in brief: as §1
# biotinyl-Ile-oxazolone = test: self-aminoacylation, catalytic enhancement (BIO) (fold over background); higher = more active; k-Seq, kA / k0A0; sequences stand for … in GGGAAUGGAUCCACAUCUACGAAUUC…UUCACUGCAGACUUGACGAAGCUG
# Method in brief: as §1
# biotinyl-Leu-oxazolone = test: self-aminoacylation, catalytic enhancement (BLO) (fold over background); higher = more active; k-Seq, kA / k0A0; sequences stand for … in GGGAAUGGAUCCACAUCUACGAAUUC…UUCACUGCAGACUUGACGAAGCUG
# Method in brief: as §1
# biotinyl-Trp-oxazolone = test: self-aminoacylation, catalytic enhancement (BWO) (fold over background); higher = more active; k-Seq, kA / k0A0; sequences stand for … in GGGAAUGGAUCCACAUCUACGAAUUC…UUCACUGCAGACUUGACGAAGCUG
# Method in brief: as §1
# biotinyl-Met-oxazolone = test: self-aminoacylation, catalytic enhancement (BMO) (fold over background); higher = more active; k-Seq, kA / k0A0; sequences stand for … in GGGAAUGGAUCCACAUCUACGAAUUC…UUCACUGCAGACUUGACGAAGCUG
# Method in brief: as §1
Sequence,self-aminoacylation (biotinyl-Phe-oxazolone),self-aminoacylation (biotinyl-Val-oxazolone),self-aminoacylation (biotinyl-Ile-oxazolone),self-aminoacylation (biotinyl-Leu-oxazolone),self-aminoacylation (biotinyl-Trp-oxazolone),self-aminoacylation (biotinyl-Met-oxazolone)
CCACACUUCCCGCAAUCGGUC [Fam1B.1 aminoacylation ribozyme variant],0.932,1.78,1.42,1.73,1.37,1.5
AAGCUCGCUAAUAGUCGCAAG [Fam3.1 aminoacylation ribozyme variant],3.66,1.95,2.09,2.49,2.2,1.75
AUUCACCUAGGUCCUCGGGUU [Fam2.2 aminoacylation ribozyme variant],8.53,2.06,1.8,2.45,2.48,2.22
CCACACAUCAAGCAACCGGUC [Fam1B.1 aminoacylation ribozyme variant],1.29,1.13,1.4,0.817,1.14,1.21
CUACUUAAAACAGUCGGUCUG [Fam1A.1 aminoacylation ribozyme variant],0.624,0.78,0.799,1.05,0.454,0.742
AUUACCCUGGUAAUAGAGUGA [Fam2.1 aminoacylation ribozyme variant],125,6.61,6.19,16.1,17.9,16.2
AUUCAGCUAGGUCACCGGGUG [Fam2.2 aminoacylation ribozyme variant],51.6,4.32,4.69,6.32,7.07,7.17
AUUCACCUAGGGCAUCAGGUG [Fam2.2 aminoacylation ribozyme variant],1.46,1.46,1.35,1.7,1.55,1.6
AUUACCCUGGUCAUGGAGUUA [Fam2.1 aminoacylation ribozyme variant],0.664,1.13,1.04,0.899,0.695,1.23
GGACUUCAAACAAUCGGUCUG [Fam1A.1 aminoacylation ribozyme variant],122,1.88,2.34,2.75,47.1,2
AUUACCCUGGUCAACGAGUAA [Fam2.1 aminoacylation ribozyme variant],1.01,1.44,1.29,1.53,0.972,1.19
CUACUUCAAACAAACGGACUG [Fam1A.1 aminoacylation ribozyme variant],0.548,0.718,0.684,0.546,0.574,0.473
CUUCACCUAGGUCAUGGGGUG [Fam2.2 aminoacylation ribozyme variant],11.6,2.7,2.5,4.06,3.7,2.84
AACUUUGCUAAUAGUCGCAAU [Fam3.1 aminoacylation ribozyme variant],6.33,2.51,2.94,3.35,2.77,2.79
CCACACUUGAAGCAAUCGGGC [Fam1B.1 aminoacylation ribozyme variant],5.71,2.63,1.55,1.57,2.26,1.34
UUUCGCCUAGGUCAUCGGGUG [Fam2.2 aminoacylation ribozyme variant],44.1,5.33,5.36,7.49,7.75,6.25
AAGAUUGCUAAUAGUCGCAAG [Fam3.1 aminoacylation ribozyme variant],4.83,1.31,1.53,1.33,2.15,1.32
AAUUUUGCUUAUAGUCGCAAG [Fam3.1 aminoacylation ribozyme variant],3.02,2.14,2.39,2.29,2.28,2.17
CCACACUUCCGGCAAUCGGUC [Fam1B.1 aminoacylation ribozyme variant],5.25,2.12,1.72,1.59,2.13,2.02
AUUACCCUGGUCCUAGAGUGA [Fam2.1 aminoacylation ribozyme variant],45.8,4.85,4.03,9.4,10.8,9.27
AUCCACCUAGGUUAUCGGGUG [Fam2.2 aminoacylation ribozyme variant],32.1,4.45,3.44,4.84,5.62,4.13
AUUACCCGGGUCAGCGAGUGA [Fam2.1 aminoacylation ribozyme variant],55.5,5.24,5.75,7.97,10.2,8.03
CUAUUUCAAACAAUAGGUCUG [Fam1A.1 aminoacylation ribozyme variant],1.03,1.01,1.25,1.08,0.803,1.11
CCACAUUUCAAGCAAUCGCUC [Fam1B.1 aminoacylation ribozyme variant],2.39,2.42,2.6,2.17,2.38,2
CCACACUAAAAGCAAUCGGUC [Fam1B.1 aminoacylation ribozyme variant],0.761,0.959,0.867,0.677,0.746,0.688
AAGUUUGCUAAUCUUCGCAAG [Fam3.1 aminoacylation ribozyme variant],0.816,1.07,1.11,0.95,1.19,1.07

Sequence,self-aminoacylation (biotinyl-Phe-oxazolone),self-aminoacylation (biotinyl-Val-oxazolone),self-aminoacylation (biotinyl-Ile-oxazolone),self-aminoacylation (biotinyl-Leu-oxazolone),self-aminoacylation (biotinyl-Trp-oxazolone),self-aminoacylation (biotinyl-Met-oxazolone)
CCACUCCAAACAAUCGGUCUG [Fam1A.1 aminoacylation ribozyme variant],4.18,1.22,1.11,1.09,3.48,1.13
AAGUAUUCUAAUAGUCGCAAG [Fam3.1 aminoacylation ribozyme variant],7.07,1.6,1.61,1.71,1.83,1.58
AUAACCCUGGUCCUCGAGUGA [Fam2.1 aminoacylation ribozyme variant],13.1,1.79,1.91,3.52,3.38,2.77
AAGUUUGGUAAUAGUCGCAAG [Fam3.1 aminoacylation ribozyme variant],2.13,1.19,1.32,1.25,1.38,1.22
CUACUUCAAACAUUCGGUGUG [Fam1A.1 aminoacylation ribozyme variant],8.08,1.51,1.4,1.73,1.39,1.82
CCACACUUCAAGCAGUCGGUC [Fam1B.1 aminoacylation ribozyme variant],1.1,0.878,0.849,0.783,0.712,0.724
CAACUUCAAUCAAUCGGUCUG [Fam1A.1 aminoacylation ribozyme variant],35.7,1.4,1.43,2.03,24,1.36
AUUCAGCUAGGACAUCGGGUG [Fam2.2 aminoacylation ribozyme variant],42.1,3.53,3.53,5.98,4.43,4.65
CUAGUUCAAACAACCGGUCUG [Fam1A.1 aminoacylation ribozyme variant],0.987,1.2,1.23,0.965,0.982,1.05
AUUGCCCUGGUAAUCGAGUGA [Fam2.1 aminoacylation ribozyme variant],56,3.92,3.71,7.99,9.18,8.63
GUUACCCGGGUCAUCGAGUGA [Fam2.1 aminoacylation ribozyme variant],62.8,4.77,4.5,9.84,8.97,8.11
AUGACCCUGGUCAUCGAGUAA [Fam2.1 aminoacylation ribozyme variant],31.5,3.51,3.71,10.2,8.31,10.1
AAGUUUCCUAAUACUCGCAAG [Fam3.1 aminoacylation ribozyme variant],0.584,0.889,0.862,0.891,0.555,1
UUUACCCUUGUCAUCGAGUGA [Fam2.1 aminoacylation ribozyme variant],19.9,3.38,3.37,6.18,7.94,6.04
AUUCACCUAGGUCAUCGGGGC [Fam2.2 aminoacylation ribozyme variant],20.7,4.81,4.85,11.5,5.91,7.18
AUUACCGUGGGCAUCGAGUGA [Fam2.1 aminoacylation ribozyme variant],34.7,3.22,3.09,6.2,5.68,5.35
AUCCACCUAGGUCAUCGAGUG [Fam2.2 aminoacylation ribozyme variant],17.4,5.17,6.55,10.3,5.78,7.89
AAGUUUGCUAAUUGUCGCUAG [Fam3.1 aminoacylation ribozyme variant],0.848,1.02,0.95,1.17,1.08,1
UUACUUCAAACAAUCGGUGUG [Fam1A.1 aminoacylation ribozyme variant],7.15,1.46,1.51,2.36,5.33,1.97
GCACACUUCAAGCAAUCGGUU [Fam1B.1 aminoacylation ribozyme variant],4.75,2.86,3.38,3.33,6.83,2.66
AUUAGCCUGGUCAUCGUGUGA [Fam2.1 aminoacylation ribozyme variant],21.6,2.07,1.96,3.17,4.27,3.38
AAGUUUGCUGAUAGCCGCAAG [Fam3.1 aminoacylation ribozyme variant],1.49,0.968,0.846,0.736,0.586,0.91
CUACUUCUAACAAUCCGUCUG [Fam1A.1 aminoacylation ribozyme variant],0.709,0.792,0.905,0.656,0.586,0.679
AUUCCCCGGGUCAUCGAGUGA [Fam2.1 aminoacylation ribozyme variant],30,2.92,3.32,4.99,6.46,4.59
UUACUUCAAACAAUUGGUCUG [Fam1A.1 aminoacylation ribozyme variant],1.76,1.12,1.43,1.14,1.61,1.2
